The target of one data set is His79 (UniProt position 85, YIPGTHMAFGG). The experiment in a line: UV-vis. The conditions noted are these: ferric protein implied, His79-mediated alkaline transition.
The next data set concerns the target His73 (UniProt position 79, LTNPKHYIPGT). In words: UV-vis. The conditions noted are these: ferric protein implied (alkaline transition); cited from earlier work.

“iso-1-cytochrome c, yWT/K79H variant (Saccharomyces cerevisiae; K79H)”: the pKa with His79 was 6.62 ± 0.08. On to “iso-1-cytochrome c, WT*/K79H variant (Saccharomyces cerevisiae; K72A;K79H;C102S)”, for which, in the data set with His79 (cited from earlier work), the pKa is reported as 6.35 ± 0.04. “iso-1-cytochrome c, yWT/K73H variant (Saccharomyces cerevisiae; K73H)”: the pKa with His73 is recorded as 6.60 ± 0.06.

As usually defined, the pKa is the negative logarithm of the acid dissociation constant.

(Values after paper PMC4485566.)
